Experimental data from the supplement of paper PMC11316812.
± gives the standard deviation of the averaged measurements.

Assays:
[1] = system: MCF7; experiment: percentage of EdU-negative (G0-arrested) nuclei per well, 72 h; higher = more G0 arrest; conditions: reference: sequence is the full UniProt precursor, the tested protein was the secreted form or ectodomain
[2] = system: hTERT-HMEC; experiment: as above; conditions: reference: sequence is the full UniProt precursor, the tested protein was the secreted form or ectodomain
[3] = protein concentration 0.00828571 µM
[4] = protein concentration 0.0828571 µM
[5] = protein concentration 0.0125 µM
[6] = protein concentration 0.0267275 µM
[7] = protein concentration 0.267275 µM
[8] = protein concentration 0.00592 µM
[9] = protein concentration 0.0592 µM
[10] = protein concentration 0.0165525 µM
[11] = protein concentration 0.165525 µM
[12] = protein concentration 0.0225 µM
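Also: secreted proteins added to cultured cells, EdU pulse at the end, nuclei found by Hoechst imaging, EdU status from nuclear versus surrounding ring intensity ratio, PBS as neutral control.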

Question: For “MGTATRRKPHLLLVAAVALVSSSAWSSALGSQTTFGPVFEDQPLSVLFPEESTEEQVLLACRARASPPATYRWKMNGTEMKLEPGSRHQLVGGNLVIMNPTKAQDAGVYQCLASNPVGTVVSREAILRFGFLQEFSKEERDPVKAHEGWGVMLPCNPPAHYPGLSYRWLLNEFPNFIPTDGRHFVSQTTGNLYIARTNASDLGNYSCLATSHMDFSTKSVFSKFAQLNLAAEDTRLFAPSIKARFPAETYALVGQQVTLECFAFGNPVPRIKWRKVDGSLSPQWTTAEPTLQIPSVSFEDEGTYECEAENSKGRDTVQGRIIVQAQPEWLKVISDTEADIGSNLRWGCAAAGKPRPTVRWLRNGEPLASQNRVEVLAGDLRFSKLSLEDSGMYQCVAENKHGTIYASAELAVQALAPDFRLNPVRRLIPAARGGEILIPCQPRAAPKAVVLWSKGTEILVNSSRVTVTPDGTLIIRNISRSDEGKYTCFAENFMGKANSTGILSVRDATKITLAPSSADINLGDNLTLQCHASHDPTMDLTFTWTLDDFPIDFDKPGGHYRRTNVKETIGDLTILNAQLRHGGKYTCMAQTVVDSASKEATVLVRGPPGPPGGVVVRDIGDTTIQLSWSRGFDNHSPIAKYTLQARTPPAGKWKQVRTNPANIEGNAETAQVLGLTPWMDYEFRVIASNILGTGEPSGPSSKIRTREAAPSVAPSGLSGGGGAPGELIVNWTPMSREYQNGDGFGYLLSFRRQGSTHWQTARVPGADAQYFVYSNESVRPYTPFEVKIRSYNRRGDGPESLTALVYSAEEEPRVAPTKVWAKGVSSSEMNVTWEPVQQDMNGILLGYEIRYWKAGDKEAAADRVRTAGLDTSARVSGLHPNTKYHVTVRAYNRAGTGPASPSANATTMKPPPRRPPGNISWTFSSSSLSIKWDPVVPFRNESAVTGYKMLYQNDLHLTPTLHLTGKNWIEIPVPEDIGHALVQIRTTGPGGDGIPAEVHIVRNGGTSMMVENMAVRPAPHPGTVISHSVAMLILIGSLEL”, which “percentage of EdU-negative” value [1, 3] is on record?
Answer: The value was 24.5 ± 3%.

Question: And the “percentage of EdU-negative” value [1, 4]?
Answer: The value was 25.1 ± 0.57%.

Question: What about the “percentage of EdU-negative” value [2, 3] of the same sequence?
Answer: Its value is 5.61 ± 0.96%.

Question: What about the “percentage of EdU-negative” value [2, 4] of the same sequence?
Answer: Its value is 5.98 ± 2%.

Question: “MDTRNKAQLLVLLTLLSVLFSQTSAWPLYRAPSALRLGDRIPFEGANEPDQVSLKEDIDMLQNALAENDTPYYDVSRNARHADGVFTSDFSKLLGQLSAKKYLESLMGKRVSSNISEDPVPVKRHSDAVFTDNYTRLRKQMAVKKYLNSILNGKRSSEGESPDFPEELEK” was tested. Which “percentage of EdU-negative” value [1, 5] did it give?
Answer: The value was 27.7 ± 3.4%.

Question: And the “percentage of EdU-negative” value ([1]; protein concentration 0.125 µM)?
Answer: Its value is 22.42 ± 0.17%.

Question: And the “percentage of EdU-negative” value [2, 5]?
Answer: Its value is 5.76 ± 0.37%.

Question: And the “percentage of EdU-negative” value ([2]; protein concentration 0.125 µM)?
Answer: Its value is 5.43 ± 0.065%.

Question: “MRLRRLALFPGVALLLAAARLAAASDVLELTDDNFESRISDTGSAGLMLVEFFAPWCGHCKRLAPEYEAAATRLKGIVPLAKVDCTANTNTCNKYGVSGYPTLKIFRDGEEAGAYDGPRTADGIVSHLKKQAGPASVPLRTEEEFKKFISDKDASIVGFFDDSFSEAHSEFLKAASNLRDNYRFAHTNVESLVNEYDDNGEGIILFRPSHLTNKFEDKTVAYTEQKMTSGKIKKFIQENIFGICPHMTEDNKDLIQGKDLLIAYYDVDYEKNAKGSNYWRNRVMMVAKKFLDAGHKLNFAVASRKTFSHELSDFGLESTAGEIPVVAIRTAKGEKFVMQEEFSRDGKALERFLQDYFDGNLKRYLKSEPIPESNDGPVKVVVAENFDEIVNNENKDVLIEFYAPWCGHCKNLEPKYKELGEKLSKDPNIVIAKMDATANDVPSPYEVRGFPTIYFSPANKKLNPKKYEGGRELSDFISYLQREATNPPVIQEEKPKKKKKAQEDL” was tested. Which “percentage of EdU-negative” value [1, 6] did it give?
Answer: The value was 23.5 ± 0.4%.

Question: And the “percentage of EdU-negative” value [1, 7]?
Answer: The value was 26.1 ± 0.34%.

Question: And the “percentage of EdU-negative” value [2, 6]?
Answer: Its value is 5.82 ± 1%.

Question: And the “percentage of EdU-negative” value [2, 7]?
Answer: Its value is 5.84 ± 0.16%.

Question: For “MHLLGFFSVACSLLAAALLPGPREAPAAAAAFESGLDLSDAEPDAGEATAYASKDLEEQLRSVSSVDELMTVLYPEYWKMYKCQLRKGGWQHNREQANLNSRTEETIKFAAAHYNTEILKSIDNEWRKTQCMPREVCIDVGKEFGVATNTFFKPPCVSVYRCGGCCNSEGLQCMNTSTSYLSKTLFEITVPLSQGPKPVTISFANHTSCRCMSKLDVYRQVHSIIRRSLPATLPQCQAANKTCPTNYMWNNHICRCLAQEDFMFSSDAGDDSTDGFHDICGPNKELDEETCQCVCRAGLRPASCGPHKELDRNSCQCVCKNKLFPSQCGANREFDENTCQCVCKRTCPRNQPLNPGKCACECTESPQKCLLKGKKFHHQTCSCYRRPCTNRQKACEPGFSYSEEVCRCVPSYWKRPQMS”, which “percentage of EdU-negative” value [1, 8] is on record?
Answer: The value was 25.4 ± 0.75%.

Question: And the “percentage of EdU-negative” value [1, 9]?
Answer: Its value is 25.31 ± 0.24%.

Question: What about the “percentage of EdU-negative” value [2, 8] of the same sequence?
Answer: The value was 5.07 ± 0.77%.

Question: What about the “percentage of EdU-negative” value [2, 9] of the same sequence?
Answer: The value was 5.93 ± 0.55%.

Question: Which “percentage of EdU-negative” value [1, 10] does the source give for “MTMETQMSQNVCPRNLWLLQPLTVLLLLASADSQAAAPPKAVLKLEPPWINVLQEDSVTLTCQGARSPESDSIQWFHNGNLIPTHTQPSYRFKANNNDSGEYTCQTGQTSLSDPVHLTVLSEWLVLQTPHLEFQEGETIMLRCHSWKDKPLVKVTFFQNGKSQKFSHLDPTFSIPQANHSHSGDYHCTGNIGYTLFSSKPVTITVQVPSMGSSSPMGIIVAVVIATAVAAIVAAVVALIYCRKKRISANSTDPVKAAQFEPPGRQMIAIRKRQLEETNNDYETADGGYMTLNPRAPTDDDKNIYLTLPPNDHVNSNN” here?
Answer: The value was 26.5 ± 1.3%.

Question: And the “percentage of EdU-negative” value [1, 11]?
Answer: The value was 25.5 ± 0.26%.

Question: What about the “percentage of EdU-negative” value [2, 10] of the same sequence?
Answer: The value was 4.6 ± 0.053%.

Question: What about the “percentage of EdU-negative” value [2, 11] of the same sequence?
Answer: Its value is 5.2 ± 0.11%.

Question: For “MAGGRHRRVVGTLHLLLLVAALPWASRGVSPSASAWPEEKNYHQPAILNSSALRQIAEGTSISEMWQNDLQPLLIERYPGSPGSYAARQHIMQRIQRLQADWVLEIDTFLSQTPYGYRSFSNIISTLNPTAKRHLVLACHYDSKYFSHWNNRVFVGATDSAVPCAMMLELARALDKKLLSLKTVSDSKPDLSLQLIFFDGEEAFLHWSPQDSLYGSRHLAAKMASTPHPPGARGTSQLHGMDLLVLLDLIGAPNPTFPNFFPNSARWFERLQAIEHELHELGLLKDHSLEGRYFQNYSYGGVIQDDHIPFLRRGVPVLHLIPSPFPEVWHTMDDNEENLDESTIDNLNKILQVFVLEYLHL”, which “percentage of EdU-negative” value [1, 12] is on record?
Answer: Its value is 25.8 ± 0.78%.

Question: What about the “percentage of EdU-negative” value ([1]; protein concentration 0.225 µM) of the same sequence?
Answer: The value was 29.91 ± 0.092%.

Question: What about the “percentage of EdU-negative” value [2, 12] of the same sequence?
Answer: Its value is 5.21 ± 0.26%.

Question: What about the “percentage of EdU-negative” value ([2]; protein concentration 0.225 µM) of the same sequence?
Answer: Its value is 4.97 ± 1.1%.
